Reference: article PMC6274713

Key:
MLL4 3500-3630 = MLL4 3500-3630 (UniProt O14686); experiment: MST; conditions: EMSA: LightShift RNA EMSA kit protocol, 1 or 2 nM RNA, 30 min at room temperature, 4 or 6% native PAGE, MST buffer, pH and temperature not given in the …
MLL4 4210-4280 = MLL4 4210-4280 (UniProt O14686); experiment: MST; conditions: apparent Kd; EMSA: LightShift RNA EMSA kit protocol, 1 or 2 nM RNA, 30 min at room temperature, 4 or 6% native PAGE; MST buffer, pH and temperature not given in the …

Row | Substance | Kd (MLL4 3500-3630) | Kd (MLL4 4210-4280) | Kd (MLL4 3500-3630; apparent, from T-jump, aggregation above 1:20 RNA:protein, no saturation)
1 | HOTAIR300 | 970 nM |  | 
2 | MEG3 full length | 722 nM |  | 
3 | HOTAIR440 |  | 13.1 µM | 100 nM
